Test results published in patent publication US20260365755 (published 2026).
Numbering of substitutions follows the chain as printed.

T1: FcγRIIa (human, UniProt P12318)
T1 chain: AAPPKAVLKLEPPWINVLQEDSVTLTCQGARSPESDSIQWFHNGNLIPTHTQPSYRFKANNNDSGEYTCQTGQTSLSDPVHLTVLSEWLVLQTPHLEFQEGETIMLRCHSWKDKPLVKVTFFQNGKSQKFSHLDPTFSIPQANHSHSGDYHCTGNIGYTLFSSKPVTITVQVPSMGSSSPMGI

T2: VEGF165 (human, UniProt P15692)
T2 chain: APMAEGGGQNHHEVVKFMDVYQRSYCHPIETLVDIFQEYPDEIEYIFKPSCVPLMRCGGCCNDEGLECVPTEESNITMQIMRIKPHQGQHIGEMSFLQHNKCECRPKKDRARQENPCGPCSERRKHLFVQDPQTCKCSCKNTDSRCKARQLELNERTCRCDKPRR

B1: Q-SBL-111 (antibody)
chain 1: not shown
chain 2: not shown
chain 3: EVQLVESGGGLVQPGGSLRLSCAASGYTFTNYGMNWVRQAPGKGLEWVGWINTYTGEPTYAADFKRRFTFSLDTSKSTAYLQMNSLRAEDTAVYYCAKYPHYYGSSHWYFDVWGQGTLVTVSSASTKGPSVFPLAPSSKSTSGGTAALGCLVKDYFPEPVTVSWNSGALTSGVHTFPAVLQSSGLYSLSSVVTVPSSSLGTQTYICNVNHKPSNTKVDKKVEPKSCDKTHTCPPCPAPELLGGPSVFLFPPKPKDTLMISRTPEVTCVVVDVSHEDPEVKFNWYVDGVEVHNAKTKPREEQYNSTYRVVSVLTVLHQDWLNGKEYKCKVSNKALPAPIEKTISKAKGQPREPQVCTLPPSRREMTKNQVSLWCLVKGFYPSDIAVEWESNGQPENNYKTTPPVLDSDGSFFLYSKLTVDKSRWQQGNVFSCSVMHEALHNHYTQKSLSLSPGK
chain 4: not shown
B2: Q-SBL-136 (antibody)
chain 1: not shown
chain 2: not shown
chain 3: B1 chain 3 with R362E, K415T
chain 4: not shown
B3: Q-SBL-102 (antibody)
chain 1: not shown
chain 2: not shown
chain 3: B1 chain 3 with R362E, D405H
chain 4: not shown
B4: Q-SBL-113 (antibody)
chain 1: not shown
chain 2: not shown
chain 3: B1 chain 3
chain 4: not shown
B5: Q-SBL-116 (antibody)
chain 1: not shown
chain 2: not shown
chain 3: B1 chain 3 with R362K
chain 4: not shown
B6: Q-SBL-135 (antibody)
chain 1: not shown
chain 2: not shown
chain 3: B1 chain 3 with R362E, K415V
chain 4: not shown
B7: Q-SBL-106 (antibody)
chain 1: not shown
chain 2: not shown
chain 3: B1 chain 3 with R362E, E363R, D405H
chain 4: not shown
B8: Q-SBL-105 (antibody)
chain 1: not shown
chain 2: not shown
chain 3: B1 chain 3 with E363R
chain 4: not shown
B9: Q-SBL-127 (antibody)
chain 1: not shown
chain 2: not shown
chain 3: B1 chain 3 with R362E, D405F
chain 4: not shown
B10: Q-SBL-137 (antibody)
chain 1: not shown
chain 2: not shown
chain 3: B1 chain 3 with R362E, K415S
chain 4: not shown
B11: Q-SBL-131 (antibody)
chain 1: not shown
chain 2: not shown
chain 3: B1 chain 3 with R362E, D405F
chain 4: not shown
B12: Q-SBL-130 (antibody)
chain 1: not shown
chain 2: not shown
chain 3: B1 chain 3 with R362E, D405F
chain 4: not shown
B13: Q-SBL-109 (antibody)
chain 1: not shown
chain 2: not shown
chain 3: B1 chain 3
chain 4: not shown
B14: Q-SBL-101 (antibody)
chain 1: not shown
chain 2: not shown
chain 3: B1 chain 3
chain 4: not shown
B15: Q-SBL-129 (antibody)
chain 1: not shown
chain 2: not shown
chain 3: B1 chain 3 with R362E, D405F
chain 4: not shown
B16: Q-SBL-110 (antibody)
chain 1: not shown
chain 2: not shown
chain 3: B1 chain 3
chain 4: not shown
B17: Q-SBL-115 (antibody)
chain 1: not shown
chain 2: not shown
chain 3: B1 chain 3 with R362E, E363R
chain 4: not shown
B18: Q-SBL-104 (antibody)
chain 1: not shown
chain 2: not shown
chain 3: B1 chain 3 with D405H
chain 4: not shown
B19: Q-SBL-112 (antibody)
chain 1: not shown
chain 2: not shown
chain 3: B1 chain 3
chain 4: not shown
B20: Q-SBL-114 (antibody)
chain 1: not shown
chain 2: not shown
chain 3: B1 chain 3 with R362E, D405H
chain 4: not shown
B21: Q-SBL-103 (antibody)
chain 1: not shown
chain 2: not shown
chain 3: B1 chain 3 with R362E, E363R
chain 4: not shown
B22: Q-SBL-117 (antibody)
chain 1: not shown
chain 2: not shown
chain 3: B1 chain 3 with R362K
chain 4: not shown

target: FcRn (human, UniProt P55899); test: BLI

Row | Kd [nM] | Binder
1 | 690 | B1
2 | 620 | B2
3 | 710 | B3
4 | 690 | B4
5 | 650 | B5
6 | 650 | B6
7 | 680 | B7
8 | 710 | B8
9 | 750 | B9
10 | 580 | B10
11 | 670 | B11
12 | 740 | B12
13 | 640 | B13
14 | 730 | B14
15 | 700 | B15
16 | 610 | B16
17 | 690 | B17
18 | 680 | B18
19 | 720 | B19

Target: T1, FcγRIIa
Test: BLI

Row | Kd [nM] | Binder
20 | 2040 | B1
21 | 1970 | B2
22 | 1700 | B3
23 | 2140 | B4
24 | 1860 | B20
25 | 2340 | B5
26 | 1380 | B6
27 | 1910 | B8
28 | 1130 | B21
29 | 1630 | B9
30 | 2120 | B10
31 | 1620 | B11
32 | 1720 | B12
33 | 2200 | B13
34 | 2460 | B14
35 | 1670 | B15
36 | 2290 | B16
37 | 1970 | B17
38 | 2550 | B22
39 | 1870 | B18
40 | 2020 | B19

target: FcγRIIIa (human, UniProt P08637); test: BLI
Sequence (P08637 17-208): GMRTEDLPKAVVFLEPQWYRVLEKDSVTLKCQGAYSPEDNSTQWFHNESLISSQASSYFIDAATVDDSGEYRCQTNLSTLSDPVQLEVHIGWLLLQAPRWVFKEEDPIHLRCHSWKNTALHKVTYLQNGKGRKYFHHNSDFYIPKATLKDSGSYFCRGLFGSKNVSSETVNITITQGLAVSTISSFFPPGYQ

Row | Kd [nM] | Binder
41 | 490 | B1
42 | 230 | B2
43 | 420 | B3
44 | 600 | B4
45 | 230 | B20
46 | 370 | B5
47 | 300 | B6
48 | 430 | B8
49 | 220 | B21
50 | 230 | B9
51 | 380 | B10
52 | 330 | B11
53 | 290 | B12
54 | 340 | B13
55 | 500 | B14
56 | 290 | B15
57 | 570 | B16
58 | 290 | B17
59 | 360 | B22
60 | 600 | B19

target: C1q (human, UniProt P02745); test: BLI
Sequence (P02745 23-245, chain 1 of 3): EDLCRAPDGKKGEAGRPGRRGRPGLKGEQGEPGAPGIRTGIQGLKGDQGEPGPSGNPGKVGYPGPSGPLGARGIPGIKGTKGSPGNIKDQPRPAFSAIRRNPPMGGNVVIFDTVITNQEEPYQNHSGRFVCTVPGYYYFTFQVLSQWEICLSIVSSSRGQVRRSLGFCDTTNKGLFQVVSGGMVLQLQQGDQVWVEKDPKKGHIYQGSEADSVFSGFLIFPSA
Sequence (P02746 28-253, chain 2 of 3, further chain): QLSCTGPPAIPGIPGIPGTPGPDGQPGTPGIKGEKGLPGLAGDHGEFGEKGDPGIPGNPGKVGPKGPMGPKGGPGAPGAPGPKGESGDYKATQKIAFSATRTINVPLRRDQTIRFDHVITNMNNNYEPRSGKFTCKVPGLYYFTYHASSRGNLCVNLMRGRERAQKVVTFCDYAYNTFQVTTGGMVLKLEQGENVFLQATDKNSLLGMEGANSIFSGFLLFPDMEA
Sequence (P02747 29-245, chain 3 of 3, further chain): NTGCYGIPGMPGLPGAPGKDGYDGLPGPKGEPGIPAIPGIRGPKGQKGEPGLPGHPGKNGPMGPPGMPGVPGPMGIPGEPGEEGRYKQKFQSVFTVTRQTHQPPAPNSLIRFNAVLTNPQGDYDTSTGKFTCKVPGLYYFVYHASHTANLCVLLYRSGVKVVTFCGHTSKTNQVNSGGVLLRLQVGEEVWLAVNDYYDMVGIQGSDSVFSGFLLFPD

Row | Kd [nM] | Binder
61 | 30 | B1
62 | 40 | B3
63 | 36 | B4
64 | 18 | B20
65 | 33 | B5
66 | 40 | B21
67 | 18 | B9
68 | 24 | B10
69 | 16 | B11
70 | 17 | B12
71 | 28 | B13
72 | 36 | B14
73 | 16 | B15
74 | 18 | B17
75 | 40 | B22
76 | 32 | B19

Target: T2, VEGF165
Test: ELISA

Row | EC50 [nM] | Binder
77 | 0.154 | B4
78 | 0.17 | B15
79 | 0.168 | B16
80 | 0.149 | B19
